± gives the uncertainty stated by the source.

The nature of the data set: amyloid nucleation score (Sup35N fusion, yeast selection) (log enrichment); library NNK2; higher = more nucleation; inactive = no reads after selection. In a few lines:
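Libraries of peptides of 20 random codons fused to Sup35N were expressed in psi-negative yeast and induced 24 hours with 100 μM copper sulfate. Selection was 7 days at 30°C on medium lacking adenine and uracil, and plasmid inserts were Illumina-sequenced before and after selection. Nucleation score is the DiMSum log enrichment of output over input reads, centred on the mode score of non-aggregating sequences, and sequences with under 100 input reads were left out.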
As to MNRPVHSDYVYSFSLEFVVV, the amyloid nucleation score was -0.089 ± 1.1.
In the case of MNWHTSYCLFDVRAKVAGNV, the amyloid nucleation score was -0.393 ± 1.1.
In turn, MNYRCKYAQDTHLSEQSSQE returned an amyloid nucleation score of -0.799 ± 0.33.
Regarding MPAFWSWSERGLSVRILGPA, the amyloid nucleation score is 3.05 ± 0.084.
The substance MPGMVTSCTVFCNQFKMETC returned an amyloid nucleation score of 6.457 ± 0.061.
As to MPPFGNDCTDREDVCMGRFV, the amyloid nucleation score result is “inactive”.
The substance MQTCYSDQMDFVYEAYYCTW came in with an amyloid nucleation score of 1.7 ± 0.1.
Turning to MRKMRTMNAQWSWIIVCSFW, the amyloid nucleation score was 0.151 ± 0.63.
Turning to MRLFVEFSVVLFYSFFNPFF, the amyloid nucleation score result is “inactive”.
To MRMGMLKMTFFGCSPDLKRL belongs -0.277 ± 0.38.
On to MRQSNDWLFFLTNGTKCGEL, for which the amyloid nucleation score was -0.162 ± 0.46.
MRSDYTSWVWVCVFMLTLGV yielded an amyloid nucleation score of -0.679 ± 0.32.
For the substance MRTRWAVITKMFRRGWEVKV, the amyloid nucleation score amounted to 0.753 ± 0.67.
The substance MRVNECCKAEGSQGRLARLV yielded an amyloid nucleation score of 0.97 ± 0.55.
For the substance MRWFNNVFFGYVVSVSRSWN, the amyloid nucleation score was -1.01 ± 1.1.
As to MRYYWMWHKVVM, the amyloid nucleation score was determined as 0.069 ± 0.29.
MSAMPDWFPLQWNWRLGQVL had an amyloid nucleation score of 1.33 ± 0.18.
To MSFYPRWFSQGMLWCKHHHA belongs 0.516 ± 0.81; to MSMATTWSIFDWVEREFPFY, -0.933 ± 0.55; to MSMYDAAIEFLLRCGYVRSY, 0.328 ± 0.34.
Take MSNDRDVVKVWFFPYDPHQS: the amyloid nucleation score was -0.378 ± 0.26.
To MSSNYWY belongs -0.916 ± 1.1; to MSSPD, 6.596 ± 0.034; to MSTGRCILRPFLGSPRSSVV, “inactive”.
Take MSTIITALEFNG: the amyloid nucleation score amounted to 0.188 ± 0.62.
The substance MSVSLLSDIN registered an amyloid nucleation score of -0.497 ± 1.
As for MTMFTCMWVNRER, the amyloid nucleation score amounted to 4.79 ± 0.057.
MTQRHFLVDTGRKAR: the amyloid nucleation score was 1.22 ± 0.48.
MTTYAVLGVPI returned an amyloid nucleation score of -0.421 ± 0.28.
For MTYIRFPLMQGHFWIMSNSK, the amyloid nucleation score was determined as 0.181 ± 0.35.
Take MVHMGGDDMCCGIVVWTQAP: the amyloid nucleation score was 11.85 ± 0.066.
Take MVPGDRCPIAKNHFFPKINL: the amyloid nucleation score was -0.335 ± 0.45.
As for MWESQGHSLAV, the amyloid nucleation score result was “inactive”.
MWGIRSYLVKVL yielded an amyloid nucleation score of -0.291 ± 0.76.
MWISFFCRRYSNIWTGFGYM returned an amyloid nucleation score of -1.09 ± 1.
In the case of MWPHRFM, the amyloid nucleation score was found to be 0.72 ± 0.28.
On to MWRFRPLRSDTLRYDGSMGC, for which the amyloid nucleation score is -0.021 ± 0.76.
With MWTIIMGMVILPRNRNL, the amyloid nucleation score worked out at 3.8 ± 0.078.
As to MWVWQEPDVWARLCLDGYEK, the amyloid nucleation score was -0.127 ± 0.45.
MYEAAGSDREVLRKYEHSSV yielded an amyloid nucleation score of -0.22 ± 0.4.
For the substance MYIMLFRFVRIVDLLDCLGN, the amyloid nucleation score is 0.207 ± 0.43.
On to MYMARCKASTVSDYQNS, for which the amyloid nucleation score is -0.393 ± 0.55.
Take MYRVLAICNRTVRKG: the amyloid nucleation score is -0.562 ± 0.61.
MYRYSWHDVFCVSKCSEVS: the amyloid nucleation score result is “inactive”.
In the case of MYYCLGILCGVSTRRGEMSC, the amyloid nucleation score is 1.17 ± 0.41.
To NAIYLVRMDYS belongs 0.138 ± 0.23; to NALVVLDMFLTIRSSVKGFI, “inactive”.
NARICDTLVLKLLTVLLENG: the amyloid nucleation score came out at 3.44 ± 0.12.
NARWKDVYHPLTYCFVNLWT displayed an amyloid nucleation score of 8.115 ± 0.034.
On to NATEGFESFWM, for which the amyloid nucleation score result is “inactive”.
Consider NCDRPTLEMSVNRRLFSCPE, for which the amyloid nucleation score amounted to 0.54 ± 0.27.
NCECMRWDDF yielded an amyloid nucleation score of -0.561 ± 0.38.
As for NCFDKMHKIWLFLLSLSIFC, the amyloid nucleation score entry was “inactive”.
To NCGLCGILHHL belongs 8.14 ± 0.072; to NCQRVWYCWVALSLCETCID, 5.168 ± 0.047.
In turn, NCSCIFKNCGFNWVFLGRIL returned an amyloid nucleation score of 2.29 ± 0.17.
Take NCSSMFCIICKKCCVDAFIL: the amyloid nucleation score was 3.73 ± 0.048.
As to NDCRMFRELTYVPHRERC, the amyloid nucleation score was 0.708 ± 0.49.
NDKTYLPGRHSYGSCYVIVW gave an amyloid nucleation score of 0.561 ± 0.64.
For NDLESMYSEGFPLLNTAHK, the amyloid nucleation score entry is “inactive”.
Regarding NDLSWVRLSYHGLVLLGDVM, the amyloid nucleation score was found to be 0.193 ± 0.34.
With NDNFLCSAIVFCMAVFRFGW, the amyloid nucleation score entry is “inactive”.
To NDRRRRGCRWMVAALVSSVL belongs 0.966 ± 0.53; to NDSMDHRQSYWGLNPFVYIV, 0.158 ± 0.65.
NEDTAGTRRLHPRYGVADWS yielded an amyloid nucleation score of 0.88 ± 0.18.
Take NEENVEVFCYRVSGSYRCYQ: the amyloid nucleation score stood at 4.36 ± 0.094.
To NEIFGTVIC belongs -1.12 ± 1; to NELEHVFLMRYKC, “inactive”.
To NELFWFNMSFSCPKWGICNL belongs 4.17 ± 0.043; to NEPETLWFLLVVWEGINISP, 0.561 ± 0.64.
Turning to NFCFVWLSREYHRLALCSGV, the amyloid nucleation score entry is “inactive”.
Substance NFIDRQLSILYMMFLITEC yielded an amyloid nucleation score of -0.774 ± 1.1.
For NFMNKMFALTWCCIDKILCG, the amyloid nucleation score is -1.1 ± 0.78.
For the substance NFNGYM, the amyloid nucleation score was -1.09 ± 0.3.
With NFNVQKIFNGDCDLVWRGFV, the amyloid nucleation score is -1.31 ± 0.76.
Turning to NFQMTVRYWVKDGVESQEIN, the amyloid nucleation score came to 4.192 ± 0.033.
Take NFRGTVLLAR: the amyloid nucleation score stood at 0.468 ± 0.74.
NFSSWSER returned an amyloid nucleation score of -0.885 ± 0.54.
The substance NFYIATIRTAFLSVMAVRN returned an amyloid nucleation score of 3.29 ± 0.089.
For the substance NGADWATRRIWVSVRAVMGR, the amyloid nucleation score turned out to be 0.513 ± 0.32.
NGCSYLERVYVVCYDDMAFG came in with an amyloid nucleation score of 0.336 ± 0.5.
NGDMWKHIKRRQVNNRG gave an amyloid nucleation score of 0.881 ± 0.67.
With NGFYSGDFWEADGTRLDVTC, the amyloid nucleation score was 0.053 ± 0.79.
Substance NGGSGNQVMLEVTNLVFK returned an amyloid nucleation score of 5.295 ± 0.044.
NGISYQRMTGNGFVESNGAS had an amyloid nucleation score of 4.683 ± 0.034.
Turning to NGITDV, the amyloid nucleation score is -0.414 ± 0.45.
Regarding NGLLSRNCIWSFGFESEVEG, the amyloid nucleation score result was “inactive”.
For the substance NGLYCFEVLLGSSAFPWTG, the amyloid nucleation score amounted to 3.63 ± 0.082.
NGLYVAIFSVNLFPPLTKYI returned an amyloid nucleation score of 5.422 ± 0.053.
To NGRETEFQFTRVDVWNFSVM belongs 5.065 ± 0.046.
In the case of NGRLWNGFMYCGWTNWFFCV, the amyloid nucleation score amounted to 1.11 ± 0.34.
To NGVDMVVAAGLSGCRWGRIR belongs 0.249 ± 0.39; to NGVRSWSQHLWKRGRWEG, 1.69 ± 0.3.
Take NGWLFFWFSIRITTSQVTSL: the amyloid nucleation score was 2.54 ± 0.098.
Take NHCPHTKWGTTYCAHGCIHA: the amyloid nucleation score is 0.639 ± 0.46.
The substance NHWWIHYDDLLLAHDFLHLW had an amyloid nucleation score of 0.055 ± 0.42.
NIAMSDMDILLMQRAQKWLR had an amyloid nucleation score of 1.1 ± 0.54.
Consider NIGSWGVSRLSCLYAGLANG, for which the amyloid nucleation score amounted to 0.549 ± 0.42.
Substance NILVTRNNKHTSFCYTSLLL returned an amyloid nucleation score of 2.22 ± 0.084.
The substance NIRNRSVNDLIRRDAYRLAL came in with an amyloid nucleation score of -0.175 ± 0.8.

The values above are taken from the supplement of paper PMC12042874.
